One assay relates to B16 cells. The assay is described as follows: Apoptosis assay, Annexin V-PE staining and FACS. In kind it is cell-based, murine. The settings on record: 48 hours post transfection; empty vector 25%. The protocol: Apoptosis assay. B16 cells transfected with pIRES-EGFP or pIRES-Stat3β were washed with CellScrub™ buffer (Gene Therapy Systems, San Diego, Calif.) 24 h after transfection. Apoptosis of transiently-transfected B16 cells was analyzed after staining with Annexin V-PE by two-color flow cytometry. Apoptosis of non-transfected tumor cells in the upper chambers of Transwell units was analyzed after staining with Annexin V-PE and VIA-PROBE™ 7-AAD (Pharmingen, San Diego, Calif.) by two-color flow cytometry.
This G0/G1 phase arrest was observed as early as 24 hourspost transfection. At 48 hours post transfection with Stat3β vector, Annexin V-PE staining followed by FACS analysis to detect apoptotic activity was performed with transfected B16 cells. A high level of apoptosis in Stat3β transfected cells (75%) relative to empty vector transfected cells (25%) was observed, as shown in FIG. 2C. Increased levels of apoptosis as a result of Stat3β transfection was confirmed by confocal laser scanning microscope analysis using rhodamine-labelled TUNEL assay.

Assay [1] deals with peritoneal macrophages and lymphocytes. Nature of the assay: Mice injected with transfected B16 cells: macrophage NO production and lymphocyte IFN-γ ELISPOT. In kind it is in vivo. The settings on record: transfected B16 cells injected into mice. The protocol:
FIG. 9A-B. Expression of Stat3β in tumor cells leads to activation of macrophages and T lymphocytes in vivo. Mice were injected with B16 cells (2×10^6/mouse) transfected with either GFP or Stat3β expression vectors. Five days later, peritoneal macrophages and lymphocytes were tested for NO production and IFN-γ production, respectively. A. NO production by peritoneal macrophages. B. IFN-γ ELISPOT of lymphocytes.
In addition to direct tumoricidal effect shown herein with production of NO by macrophages, innate immunity critically impacts the development of adaptive immune responses. […] Furthermore, a four-fold increase in IFN-γ production by lymphocytes derived from mice injected with Stat3β-transfected B16 cells was also detected (FIG. 9B).

Another assay has as its system B16 tumors. The assay is described as follows: Stat3β gene therapy of established B16 tumors in mice. In kind it is in vivo. As to conditions: for tumor growth: ten to fifteen percent of tumor cells transfected in vivo. The protocol:
Mice. Six- to eight-week old female C57/B6 mice were obtained from the National Cancer Institute (Frederick, Md.). Cohorts of 3-5 mice per group were used for these experiments. To induce tumor, mice were shaved on the left flank and injected s.c. with 5×10^5 of B16 cells in 100 μl of PBS. Gene therapy with Stat3β of established B16 tumors was described previously [Niu, 1999 #72].
Antibody staining of iNOS in B16 tumors. 3 μm paraffin sections were deparaffinized and endogenous peroxidase was blocked with 3% aqueous hydrogen peroxide. To minimize non-specific binding, the sections were incubated for 20 min in normal goat serum in PBS, followed by overnight incubation at 4° C. with rabbit anti-iNOS polyclonal antibody (Transduction Laboratories). After washing with PBS, sections were incubated for 2 min with diaminobenzidine tetrahydrochloride, rinsed with tap water and counterstained with modified Mayer's hematoxylin. Sections were dehydrated, cleared and mounted. Peritoneal macrophages and neutrophils.
Tissue sections from control vector-treated and Stat3β-treated tumors were stained with H&E and anti-iNOS antibodies.

The next assay concerns the target T1, Stat3 (Mus musculus, UniProt P42227).
T1 construct: endogenous in cells; host or cells: B16 murine melanoma cells (nuclear extracts)
Nature of the assay: EMSA of Stat3 DNA-binding activity in nuclear extracts of transfected B16 cells. In kind it is cell-based, murine. As to conditions: B16 cells transfected with Stat3β, hSIE probe. The protocol: FIG. 1. Inhibition of endogenous Stat3 (SEQ. ID. NO: 1; SEQ. ID. NO:2) DNA-binding activity in B16 cells by overexpression of Stat3β (SEQ. ID. NO:3; SEQ. ID. NO:4). EMSA was performed with nuclear extracts prepared from B16 cells transfected with no DNA (lane 1), empty vector (lane 2) or Stat3β expression vector (lane 3). Extracts from NIH3T3 fibroblasts stimulated with EGF were used as a positive control for Stat1 and Stat3 (lane 4). Supershifts were performed using antibodies recognizing either Stat3 (α-ST3) or Stat3:3 (α-ST3β) with extracts derived from B16 cells transfected with no DNA (lanes 5-7), the empty vector (lanes 8-10), or Stat3β vector (lanes 11-13). ST3:3, and ST1:3, ST1:1 indicate migration of complexes containing Stat3 or Stat3β homodimers, Stat1/Stat3 heterodimers and Stat1/Stat1 homodimers, respectively. The asterisk indicates the position of supershifted complexes.
Nuclear extracts and EMSA. Nuclear extract preparation and EMSA analysis of STAT DNA-binding activity were performed as previously described Catlett-Falcone et al., 1999, supra.
EGF-induced Stat3 binding activity in NIH3T3 (lane 4) was used as a positive control. By supershift analysis with antibody that recognizes Stat3 but not Stat3β or antibody that recognizes Stat3β but not Stat3, it was shown that there were Stat3-Stat3 homodimers in mock-transfected B16 cells and empty vector-transfected B16 cells.
Background: Mobility shift assays separate free from complexed probe on a gel.

For another assay, the system named is TRAIL. The assay is described as follows: RNase protection assay with multi-template probes for regulators of apoptosis. The settings on record: B16 cells, thirty hours after transfection. In kind it is cell-based, murine. On the procedure:
FIG. 4. Stat3β overexpression in B16 cells results in induction of TRAIL mRNA expression. Ten μg of total cellular RNAs isolated from B16 (lanes 1 and 4), and B16 transfected with either pIRES-EGFP (lanes 2 and 5) or pIRES-Stat3β (lanes 3 and 6) were hybridized with each multiple probe before digestion with RNase. Separation of protected fragments was achieved by gel electrophoresis. Fragment assignment was determined by migration relative to internal standards. Induction of TRAIL RNA was confirmed by two additional RPA analyses.
RNA isolation and RNase protection assay. Total RNA was isolated from 5.0×10^6 cells by TRIzol reagent (Gibco BRL, Grand Island, N.Y.). RNase protection assays (RPA) were carried out using the PharMingen Riboquant mAPO-3 (TRAIL, FasL, CD95, and other death receptor associated genes) and mAPO-2 (Bcl-2 family members) multi-probe templates according to the manufacturer's protocol (PharMingen, San Diego, Calif.). Briefly, the multi-probe template was synthesized by in vitro transcription with incorporation of [^32P]-α UTP and purified on a G50 Sephadex column (5-Prime to 3-Prime, Boulder, Colo.). Specific activity was quantitated in a Beckman LS 6500 scintillation counter (Beckman, Schaumburg, Ill.). […] Protected RNA fragments were separated on a 5% polyacrylamide denaturing gel and quantified with Image Quant software (Molecular Dynamics, Sunnyvale, Calif.). […]

T1 sequence (P42227 whole entry): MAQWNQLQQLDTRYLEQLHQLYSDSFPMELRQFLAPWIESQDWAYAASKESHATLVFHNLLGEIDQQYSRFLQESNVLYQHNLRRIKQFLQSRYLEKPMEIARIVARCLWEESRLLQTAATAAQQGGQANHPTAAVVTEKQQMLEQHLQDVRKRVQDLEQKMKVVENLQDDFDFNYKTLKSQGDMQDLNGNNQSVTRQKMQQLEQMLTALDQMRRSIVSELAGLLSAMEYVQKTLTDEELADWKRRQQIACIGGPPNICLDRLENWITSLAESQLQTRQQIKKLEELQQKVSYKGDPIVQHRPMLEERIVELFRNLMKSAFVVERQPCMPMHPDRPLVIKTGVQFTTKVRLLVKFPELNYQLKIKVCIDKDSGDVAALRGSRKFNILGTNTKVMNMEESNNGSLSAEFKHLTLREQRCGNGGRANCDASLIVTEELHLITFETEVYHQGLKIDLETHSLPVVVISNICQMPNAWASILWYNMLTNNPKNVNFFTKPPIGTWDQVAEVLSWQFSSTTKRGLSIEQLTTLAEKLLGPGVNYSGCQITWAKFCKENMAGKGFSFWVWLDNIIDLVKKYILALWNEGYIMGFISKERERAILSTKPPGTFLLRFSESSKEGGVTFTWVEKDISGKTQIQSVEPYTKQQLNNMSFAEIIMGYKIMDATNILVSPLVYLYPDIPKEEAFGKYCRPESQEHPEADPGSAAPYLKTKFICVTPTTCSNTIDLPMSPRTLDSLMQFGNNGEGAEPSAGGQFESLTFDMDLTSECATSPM

B1: Stat3β: dominant-negative Stat3 variant, truncated form lacking the transactivation domain; delivered by the pIRES-Stat3β expression vector (protein)
chain: AQWNQLQQLDTRYLEQLHQLYSDSFPMELRQFLAPWIESQDWAYAASKESHATLVFHNLLGEIDQQYSRFLQESNVLYQHNLRRIKQFLQSRYLEKPMEIARIVARCLWEESRLLQTAATAAQQGGQANHPTAAVVTEKQQMLEQHLQDVRKRVQDLEQKMKVVENLQDDFDFNYKTLKSQGDMQDLNGNNQSVTRQKMQQLEQMLTALDQMRRSIVSELAGLLSAMEYVQKTLTDEELADWKRRQQIACIGGPPNICLDRLENWITSLAESQLQTRQQIKKLEELQQKVSYKGDPIVQHRPMLEERIVELFRNLMKSAFVVERQPCMPMHPDRPLVIKTGVQFTTKVRLLVKFPELNYQLKIKVCIDKDSGDVAALRGSRKFNILGTNTKVMNMEESNNGSLSAEFKHLTLREQRCGNGGRANCDASLIVTEELHLITFETEVYHQGLKIDLETHSLPVVVISNICQMPNAWASILWYNMLTNNPKNVNFFTKPPIGTWDQVAEVLSWQFSSTTKRGLSIEQLTTLAEKLLGPGVNYSGCQITWAKFCKENMAGKGFSFWVWLDNIIDLVKKYILALWNEGYIMGFISKERERAILSTKPPGTFLLRFSESSKEGGVTFTWVEKDISGKTQIQSVEPYTKQQLNNMSFAEIIMGYKIMDATNILVSPLVYLYPDIPKEEAFGKYCRPESQEHPEADPGAAPYLKTKFICVTFIDAVWK
In turn, B1 came in with a level of apoptosis in the assay on B16 cells of 75%. The “increase in IFN-γ production by lymphocytes” value in assay [1] (ELISPOT) was “four-fold”. Also, in assay [1] (five days later), the “NO production by peritoneal macrophages” value is given as “clear induction of NO production”. Besides, the “apoptosis of tumor cells in vivo” value with B16 tumors (B16 tumors) is “massive apoptosis of B16 tumor cells”. For the same molecule, the tumor growth entry is “complete regression of tumors” in the assay on B16 tumors (B16 tumors); “inhibition of tumor growth and tumor regression” in the assay with B16 tumors (B16 tumors, listed as Stat30). Moreover, the “infiltration of inflammatory cells (neutrophils, macrophages, T cells)” value with B16 tumors (H&E staining, vs control vector-treated tumors) is “dramatic increase in number of inflammatory cells”. In addition, the “iNOS expression in tumor-infiltrating macrophages” value in the assay on B16 tumors (anti-iNOS antibody staining) is listed as “induction of iNOS gene expression in the tumor-infiltrating macrophages”. The “Stat3 DNA-binding complexes (supershift analysis)” value with Stat3 is “mostly Stat3β-Stat3β homodimer formation”. Besides, the “TRAIL RNA expression” value in the assay with TRAIL is given as “induction of TRAIL RNA expression”.

For the origin of these results see patent US20090227489A1, “STAT3 Agonists and Antagonists and Therapeutic Uses Thereof” (Johns Hopkins University, priority 2000, published 2009).
